The target of this assay is ELAVL4 1-117 with the canonical isoAsp-prone sites N7, N15 and D36 mutated (human).

The results in this text go back to patent publication US20190290758A1.

“recombinant rat repair enzyme protein-L-isoaspartate O-methyltransferase (PIMT) (from UniProt P22062)”: the on-blot PIMT-catalyzed methylation with 3H-S-adenosyl methionine was found to be 25%.
